Results as given in patent US20110294728, “Antiviral Polypeptides” (published 2011).

B1: 19/36-mer DNA/DNA primer/template (HIV-1 PBS) (dsDNA)
DNA 1: TCCCTGTTCGGGCGCCACT
DNA 2: TGTGGAAAATCTCATGCAGTGGCGCCCGAACAGGGA
B2: 19/36-mer (printed 18/36) DNA/DNA primer/template, unlabelled (dsDNA)
DNA 1: TCCCTGTTCGGGCGCCACT
DNA 2: TGTGGAAAATCTCATGCAGTGGCGCCCGAACAGGGA

Tests used:
[1] = target: HIV-1 reverse transcriptase p66/p51 heterodimer (HIV-1 (BH10), UniProt P03366;P03366 P03366:600-1159,P03366:600-1039); assay: steady-state fluorescence quenching; 50 mM Tris-HCl pH 8.0, 50 mM KCl, 10 mM MgCl2, 1 mM DTT, 25 C; details: tags: recombinant from E. coli; His-tagged and untagged preparations described, form used in the titration not specified; label: 6-FAM at primer 3' end; primer/template with 5' single-stranded template overhang
[2] = target: HIV-1 reverse transcriptase p66/p51 in complex with PAW peptide (HIV-1 (BH10), UniProt P03366;P03366 P03366:600-1159,P03366:600-1039); assay: steady-state fluorescence quenching; 10 uM PAW; 50 mM Tris-HCl pH 8.0, 50 mM KCl, 10 mM MgCl2, 25 C; details: protein: synthetic; label: 6-FAM at primer 3' end; primer/template with 5' single-stranded template overhang
[3] = target: HIV-1 reverse transcriptase p66/p51 in complex with FITC-PAW (HIV-1 (BH10), UniProt P03366;P03366 P03366:600-1159,P03366:600-1039); assay: quenching of FITC-PAW pre-bound to RT on titration with unlabelled p/t; 10 mM MgCl2, 25 C; details: tags: PAW with C-terminal Cys-FITC; primer/template with 5' single-stranded template overhang

Row | Binder | Kd [1] | Kd [2] | Kd [3]
1 | B1 | 22 nM | 99 nM | –
2 | B2 | – | – | 66.5 nM
